Assays:
[1] = target: E. coli type I Zorya ZorA, wild type (EcZorA) (E. coli); assay: cryo-EM structure
[2] = target: E. coli type I Zorya ZorB, wild type (EcZorB) (E. coli); assay: cryo-EM structure

stoichiometry N [1] | stoichiometry N [2] | Substance
5 | – | E. coli type I Zorya ZorA, wild type (EcZorA) (natural protein)
– | 2 | E. coli type I Zorya ZorB, wild type (EcZorB) (natural protein)

From paper doi:10.1101/2023.12.18.572097
